Assay results: patent publication US20050037394

Tests used:
Experiment in all cases: filter
IL-23 (Homo sapiens) = IL-23 (Homo sapiens) (UniProt Q9NPF7+P29460); settings: approximately 500 nM or higher, DPBS, 0.1 mg/ml tRNA
IgE (Homo sapiens) = settings: 2'-OMe C,U; 2'-OH A,G; approximately 500 nM or higher
[1] = molecular target: Complement C5 full length (Homo sapiens) (UniProt P01031+P01031); settings: dRmY: deoxy A,G, 2'-OMe C,U, plateau about 10%
IFN-gamma (Homo sapiens) = molecular target: T1, IFN-gamma (Homo sapiens) (UniProt P01579); settings: dRmY: deoxy A,G, 2'-OMe C,U
T1 sequence: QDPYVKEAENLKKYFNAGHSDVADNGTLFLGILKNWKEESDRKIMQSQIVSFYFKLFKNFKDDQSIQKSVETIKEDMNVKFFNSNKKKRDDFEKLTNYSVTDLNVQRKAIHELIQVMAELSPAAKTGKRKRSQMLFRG

PDGF-BB (Homo sapiens) = PDGF-BB (Homo sapiens) (UniProt P01127); settings: 2'-OMe A,C,U; 2'-OH G; approximately 950 nM or higher; naive pool also binds PDGF-BB
Chain of PDGF-BB (Homo sapiens) (P01127 82-190): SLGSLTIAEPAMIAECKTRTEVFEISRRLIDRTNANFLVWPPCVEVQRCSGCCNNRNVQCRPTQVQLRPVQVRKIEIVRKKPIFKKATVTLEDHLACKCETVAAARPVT

[2] = high salt selection (250 mM NaCl)

Chain of IL-23 (Homo sapiens) (Q9NPF7 20-189, chain 1 of 2): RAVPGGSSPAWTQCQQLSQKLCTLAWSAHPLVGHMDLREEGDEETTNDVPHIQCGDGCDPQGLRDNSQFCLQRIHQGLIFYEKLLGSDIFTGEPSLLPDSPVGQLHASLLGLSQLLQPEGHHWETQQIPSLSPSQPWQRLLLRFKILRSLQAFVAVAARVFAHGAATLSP
Chain of IL-23 (Homo sapiens) (P29460 23-328, chain 2 of 2): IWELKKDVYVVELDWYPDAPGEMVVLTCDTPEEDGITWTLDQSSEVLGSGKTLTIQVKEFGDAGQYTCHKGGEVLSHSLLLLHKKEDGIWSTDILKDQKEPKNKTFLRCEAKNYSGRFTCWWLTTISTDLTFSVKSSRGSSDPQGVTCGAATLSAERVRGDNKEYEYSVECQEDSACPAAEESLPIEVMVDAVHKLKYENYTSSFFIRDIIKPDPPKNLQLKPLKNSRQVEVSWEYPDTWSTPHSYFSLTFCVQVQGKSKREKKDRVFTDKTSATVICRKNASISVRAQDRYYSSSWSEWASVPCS
Chain of Complement C5 full length (Homo sapiens) (P01031 19-673, chain 1 of 2): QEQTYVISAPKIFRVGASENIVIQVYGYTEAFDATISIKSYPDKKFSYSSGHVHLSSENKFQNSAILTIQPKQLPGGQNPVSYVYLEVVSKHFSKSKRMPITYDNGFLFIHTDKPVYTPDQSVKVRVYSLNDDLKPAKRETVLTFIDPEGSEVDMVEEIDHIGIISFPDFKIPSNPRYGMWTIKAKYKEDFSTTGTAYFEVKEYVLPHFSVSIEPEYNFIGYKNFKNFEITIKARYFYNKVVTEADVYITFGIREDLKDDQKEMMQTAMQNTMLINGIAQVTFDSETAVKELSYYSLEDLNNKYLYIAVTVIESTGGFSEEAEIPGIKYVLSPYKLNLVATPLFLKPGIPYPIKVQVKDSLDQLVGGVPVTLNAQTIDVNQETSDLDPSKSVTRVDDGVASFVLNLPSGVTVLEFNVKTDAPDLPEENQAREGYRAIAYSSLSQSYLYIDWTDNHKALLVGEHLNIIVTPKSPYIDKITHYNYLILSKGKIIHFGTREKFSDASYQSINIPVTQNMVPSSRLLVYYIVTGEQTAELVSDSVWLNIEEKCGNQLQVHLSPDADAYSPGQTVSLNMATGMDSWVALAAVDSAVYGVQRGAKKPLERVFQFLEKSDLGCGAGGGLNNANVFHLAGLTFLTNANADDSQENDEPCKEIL
Chain of Complement C5 full length (Homo sapiens) (P01031 678-1676, chain 2 of 2): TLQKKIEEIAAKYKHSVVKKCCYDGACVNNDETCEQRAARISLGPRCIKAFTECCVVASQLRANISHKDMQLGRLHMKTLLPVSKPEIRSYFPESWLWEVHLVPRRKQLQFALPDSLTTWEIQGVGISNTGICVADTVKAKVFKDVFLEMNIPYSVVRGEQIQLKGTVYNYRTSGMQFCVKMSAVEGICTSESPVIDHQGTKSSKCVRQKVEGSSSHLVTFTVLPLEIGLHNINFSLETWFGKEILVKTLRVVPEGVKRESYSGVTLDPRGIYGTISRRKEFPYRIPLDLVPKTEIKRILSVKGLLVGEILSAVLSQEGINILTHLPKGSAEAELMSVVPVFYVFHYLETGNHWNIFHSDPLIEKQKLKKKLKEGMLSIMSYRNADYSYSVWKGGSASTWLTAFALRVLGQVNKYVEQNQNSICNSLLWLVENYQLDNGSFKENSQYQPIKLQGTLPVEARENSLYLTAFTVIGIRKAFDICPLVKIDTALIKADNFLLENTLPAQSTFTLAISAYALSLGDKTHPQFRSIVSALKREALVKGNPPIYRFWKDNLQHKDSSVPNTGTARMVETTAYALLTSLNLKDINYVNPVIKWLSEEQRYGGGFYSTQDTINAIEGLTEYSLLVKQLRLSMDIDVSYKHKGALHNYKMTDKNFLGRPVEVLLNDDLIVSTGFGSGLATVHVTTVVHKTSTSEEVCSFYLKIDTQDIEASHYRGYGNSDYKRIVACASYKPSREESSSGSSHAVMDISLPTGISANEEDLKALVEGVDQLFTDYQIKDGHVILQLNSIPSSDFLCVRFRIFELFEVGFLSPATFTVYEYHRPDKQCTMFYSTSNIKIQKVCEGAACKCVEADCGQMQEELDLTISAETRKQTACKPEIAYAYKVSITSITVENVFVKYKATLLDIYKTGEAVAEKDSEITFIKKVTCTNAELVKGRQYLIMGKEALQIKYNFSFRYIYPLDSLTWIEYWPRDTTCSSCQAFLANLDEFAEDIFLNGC

**Q.** “GGGAGAGGAGAGAACGUUCUACNNNNNNNNNNNNNNNNNNNNNNNNNNNNNNCGCUGUCGAUCGAUCGAUCGAUG [IL-23 rRmY round 9 pool]” was tested. Which Kd (IL-23 (Homo sapiens); 2'-OMe C,U, 2'-OH A,G) did it give?
**A.** The Kd was over 500 nM.

**Q.** Which Kd (IgE (Homo sapiens)) does the source give for “GGGAGAGGAGAGAACGUUCUACNNNNNNNNNNNNNNNNNNNNNNNNNNNNNNCGCUGUCGAUCGAUCGAUCGAUG [IgE rRmY round 6 pool]” here?
**A.** The Kd was over 500 nM.

**Q.** For “GGGAGAGGAGAGAACGUUCUACNNNNNNNNNNNNNNNNNNNNNNNNNNNNNNGGUCGAUCGAUCGAUCAUCGAUG [C5 full-length selection round 10 dRmY pool]”, which Kd ([1]; 1x DPBS, tRNA and salmon sperm DNA competitor) is on record?
**A.** The Kd was 115 nM.

**Q.** Which Kd ([1]; selection on partially trypsinized C5) does the source give for “GGGAGAGGAGAGAACGUUCUACNNNNNNNNNNNNNNNNNNNNNNNNNNNNNNGGUCGAUCGAUCGAUCAUCGAUG [C5 partially trypsinized selection round 10 dRmY pool]” here?
**A.** The Kd was 150 nM.

**Q.** Which Kd (IFN-gamma (Homo sapiens); [2]) does the source give for “GGGAGAGGAGAGAACGUUCUACNNNNNNNNNNNNNNNNNNNNNNNNNNNNNNGGUCGAUCGAUCGAUCAUCGAUG [IFN-gamma round 10 dRmY pool, high salt]” here?
**A.** The Kd was 675 nM.

**Q.** For “GGGAGAGGAGAGAACGUUCUACNNNNNNNNNNNNNNNNNNNNNNNNNNNNNNGGUCGAUCGAUCGAUCAUCGAUG [IFN-gamma round 10 dRmY pool, normal stringency]”, which Kd (IFN-gamma (Homo sapiens); 1x DPBS, tRNA, ssDNA, BSA) is on record?
**A.** Its Kd is 605 nM.

**Q.** How did the Kd (IFN-gamma (Homo sapiens); [2]) turn out when “GGGAGAGGAGAGAACGUUCUACNNNNNNNNNNNNNNNNNNNNNNNNNNNNNNGGUCGAUCGAUCGAUCAUCGAUG [IFN-gamma round 12 dRmY pool, high salt]” was run?
**A.** Its Kd is 590 nM.

**Q.** “GGGAGAGGAGAGAACGUUCUACNNNNNNNNNNNNNNNNNNNNNNNNNNNNNNGGUCGAUCGAUCGAUCAUCGAUG [IFN-gamma round 12 dRmY pool, normal stringency]” was tested. Which Kd (IFN-gamma (Homo sapiens); 1x DPBS, tRNA, ssDNA, BSA) did it give?
**A.** The Kd was 445 nM.

**Q.** Which Kd (IL-23 (Homo sapiens); 2'-OMe A,C,U, 2'-OH G) does the source give for “GGGNGNGGNGNGNNCGUUCUNCNNNNNNNNNNNNNNNNNNNNNNNNNNNNNNCGCUGUCGNUCGNUCGNUCGNUG [IL-23 rGmH round 10 pool]” here?
**A.** The Kd was over 500 nM.

**Q.** With “GGGNGNGGNGNGNNCGUUCUNCNNNNNNNNNNNNNNNNNNNNNNNNNNNNNNCGCUGUCGNUCGNUCGNUCGNUG [PDGF-BB rGmH round 10 pool]” as the sequence, how does the Kd (PDGF-BB (Homo sapiens)) read?
**A.** The Kd was over 950 nM.
